Test results taken from article PMC10208570, “Peptidomimetic antibiotics disrupt the lipopolysaccharide transport bridge of drug-resistant Enterobacteriaceae” (Science Advances, 2023).

Biological target: LptAm^Q62L (E. coli) (E. coli (ATCC 25922))
Assay: fluorescence polarisation; indirect (competition) assay: unlabeled peptide or protein serially diluted into a 1:1 mixture of Lpt protein and 6-FL (2x stock 70 nM); 50 mM Na-Pi pH 7, 150 mM NaCl, 0.05% Tween 20; incubated overnight at 4°C, read at 25°C; triplicates; Ki from IC50 by Cheng-Prusoff

B1: mLptA (E. coli), LptA(25-185) E39V M47A R76A (domain or fragment)
chain: GAFAVTGDTDQPIHIVSDQQSLDAQGNVVTFTGNVIVTQGTIKINADKVVVTAPGGEQGKEVIDGYGKPATFYQMQDNGKPVEGHASQMHYELAKDFVVLTGNAYLQQVDSNIKGDKITYLVKEQKMQAFSDKGKRVTTVLVPSQLQDKNNKGQTPAQKKGN
Which Ki does the source give for B1 here?
The Ki was 69 nM.
